According to publication PMC7935541:

Assays:
[1] = molecular target: 1065 toxin (IPF_1065, RelE/ParE-like toxin), C-terminally His-tagged (Microcystis aeruginosa PCC 7806); assay: SEC-MALS
[2] = molecular target: 1067 antitoxin (IPF_1067, ParD-like antitoxin), C-terminally His-tagged (Microcystis aeruginosa PCC 7806); assay: […]; 20 mM HEPES pH 7.4, 150 mM NaCl, room temperature

| Substance | stoichiometry N (antitoxin per toxin) [1] | stoichiometry N [2] |
| --- | --- | --- |
| 1067 antitoxin (IPF_1067), non-tagged, coexpressed with the 1065 toxin (natural protein) | 2 | – |
| 1067 antitoxin (IPF_1067, ParD-like antitoxin), C-terminally His-tagged (natural protein) | – | 2 |
